# T1: ESAM (library protein) (UniProt Q96AP7 30-248, limits assumed)
# T1 sequence (looked up): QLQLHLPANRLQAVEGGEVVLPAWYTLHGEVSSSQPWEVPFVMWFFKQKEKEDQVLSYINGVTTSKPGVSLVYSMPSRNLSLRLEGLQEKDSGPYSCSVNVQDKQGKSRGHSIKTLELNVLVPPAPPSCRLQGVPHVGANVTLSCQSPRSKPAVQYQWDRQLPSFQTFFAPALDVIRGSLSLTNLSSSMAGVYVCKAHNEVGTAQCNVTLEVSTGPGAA
# T2: TNFRSF10C (library protein) (UniProt O14798 26-236, limits assumed)
# T2 sequence (looked up): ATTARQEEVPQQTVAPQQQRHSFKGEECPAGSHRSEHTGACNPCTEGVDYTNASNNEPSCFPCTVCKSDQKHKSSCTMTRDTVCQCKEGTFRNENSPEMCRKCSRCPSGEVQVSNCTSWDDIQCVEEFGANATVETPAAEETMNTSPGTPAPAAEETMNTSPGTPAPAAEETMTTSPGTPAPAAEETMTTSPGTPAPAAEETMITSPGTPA
# T3: IGFBP4 (library protein) (UniProt P22692 22-258)
# T3 sequence (looked up): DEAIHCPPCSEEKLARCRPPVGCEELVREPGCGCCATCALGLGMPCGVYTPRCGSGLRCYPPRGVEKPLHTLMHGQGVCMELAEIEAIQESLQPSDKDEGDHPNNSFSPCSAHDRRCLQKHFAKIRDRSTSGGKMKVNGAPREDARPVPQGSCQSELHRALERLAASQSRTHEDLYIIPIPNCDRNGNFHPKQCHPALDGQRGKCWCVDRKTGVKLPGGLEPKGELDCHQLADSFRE
# T4: IL-19 (library protein) (UniProt Q9UHD0 25-177)
# T4 sequence (looked up): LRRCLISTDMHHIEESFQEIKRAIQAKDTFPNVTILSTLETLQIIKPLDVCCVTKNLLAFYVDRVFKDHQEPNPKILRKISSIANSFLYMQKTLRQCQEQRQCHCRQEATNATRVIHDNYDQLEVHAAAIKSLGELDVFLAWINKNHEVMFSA
# B1: gD-tagged full-length TIGIT expressed on stably transfected CHO cells (receptor)
# chain: KYALADASLKMADPNRFRGKDLPVLMMTGTIETTGNISAEKGGSIILQCHLSSTTAQVTQVNWEQQDQLLAICNADLGWHISPSFKDRVAPGPGLGLTLQSLTVNDTGEYFCIYHTYPDGTYTGRIFLEVLESSVAEHGARFQIPLLGAMAATLVVICTAVIVVVALTRKKKALRIHSVEGDLRRKSAGQEEWSPSAPSPPGSCVQAEAAPAGLCGEQRGEDCAELHDYFNVLSYRSLGNCSFFTETG
# notes: also called CHO-TIGIT; CHO cells expressing TIGIT
# B2: TIGIT-Fc (amino acids 1-138 of human TIGIT fused immediately preceding the Fc region of human IgG1) (Fc fusion)
# chain: APLASGMMTGTIETTGNISAEKGGSIILQCHLSSTTAQVTQVNWEQQDQLLAICNADLGWHISPSFKDRVAPGPGLGLTLQSLTVNDTGEYFCIYHTYPDGTYTGRIFLEVLESSVAEHGARF
# notes: Expressed in CHO cells; Biotinylated for flow cytometry and 125I-iodinated for radioligand assays; also called TIGIT-Fc fusion protein; not shown: Fc region of human IgG1
# B3: OTOR (library protein) (other, UniProt Q9NRC9 18-128, looked up, not shown: a dimerising Fc or GST)
# chain: VHGIFMDRLASKKLCADDECVYTISLASAQEDYNAPDCRFINVKKGQQIYVYSKLVKENGAGEFWAGSVYGDGQDEMGVVGYFPRNLVKEQRVYQEATKEVPTTDIDFFCE
# B4: PVR-Fc fusion protein (Fc fusion, UniProt P15151 21-343, looked up)
# chain: WPPPGTGDVVVQAPTQVPGFLGDSVTLPCYLQVPNMEVTHVSQLTWARHGESGSMAVFHQTQGPSYSESKRLEFVAARLGAELRNASLRMFGLRVEDEGNYTCLFVTFPQGSRSVDIWLRVLAKPQNTAEVQKVQLTGEPVPMARCVSTGGRPPAQITWHSDLGGMPNTSQVPGFLSGTVTVTSLWILVPSSQVDGKNVTCKVEHESFEKPQLLTVNLTVYYPPEVSISGYDNNWYLGQNEATLTCDARSNPEPTGYNWSTTMGPLPPFAVAQGAQLLIRPVDKPINTTLICNVTNALGARQAELTVQVKEGPPSEHSGISRN
# notes: Found in a library of secreted proteins fused to hexahistidine or Fc tags; also called poliovirus receptor; not shown: Fc tag
# B5: CD96-Fc (amino acids 1-500 of CD96 fused to the Fc region of human IgG1) (Fc fusion, UniProt P40200 22-500, looked up, not shown: a dimerising Fc or GST)
# chain: VWEKTVNTEENVYATLGSDVNLTCQTQTVGFFVQMQWSKVTNKIDLIAVYHPQYGFYCAYGRPCESLVTFTETPENGSKWTLHLRNMSCSVSGRYECMLVLYPEGIQTKIYNLLIQTHVTADEWNSNHTIEIEINQTLEIPCFQNSSSKISSEFTYAWSVENSSTDSWVLLSKGIKEDNGTQETLISQNHLISNSTLLKDRVKLGTDYRLHLSPVQIFDDGRKFSCHIRVGPNKILRSSTTVKVFAKPEIPVIVENNSTDVLVERRFTCLLKNVFPKANITWFIDGSFLHDEKEGIYITNEERKGKDGFLELKSVLTRVHSNKPAQSDNLTIWCMALSPVPGNKVWNISSEKITFLLGSEISSTDPPLSVTESTLDTQPSPASSVSPARYPATSSVTLVDVSALRPNTTPQPSNSSMTTRGFNYPWTSSGTDTKKSVSRIPSETYSSSPSGAGSTLHDNVFTSTARAFSEVPTTANGST
# B6: CD226-Fc (amino acids 1-259 of CD226 fused to the Fc region of human IgG1) (Fc fusion, UniProt Q15762 19-259, looked up)
# chain: EEVLWHTSVPFAENMSLECVYPSMGILTQVEWFKIGTQQDSIAIFSPTHGMVIRKPYAERVYFLNSTMASNNMTLFFRNASEDDVGYYSCSLYTYPQGTWQKVIQVVQSDSFEAAVPSNSHIVSEPGKNVTLTCQPQMTWPVQAVRWEKIQPRQIDLLTYCNLVHGRNFTSKFPRQIVSNCSHGRWSVIVIPDVTVSDSGLYRCYLQASAGENETFVMRLTVAEGKTDNQYTLFVAGGTVL
# notes: range 1-259; also called DNAM; not shown: Fc region of human IgG1
# What was measured:
# PVR-Fc fusion protein [1] = target: B4; test: competition radioligand binding, 125I Fc-ligand on receptor-expressing CHO cells, Scatchard
# Protocol: (§1) Plasmids were transfected into CHO cells using Lipofectamine LTX (Invitrogen). Expression of gD-tagged proteins was verified by flow cytometry using the Alexa-647 anti-gD conjugate. Stably-transfected cell lines were sorted twice by FACS for purity before use. Fc-fusion proteins constructed as described above were iodinated (¹²⁵I) using the Iodogen method. Binding studies were carried out on stable transfectants in triplicate with 0.1-3 nM iodinated ligand. […] Cell suspensions were harvested onto nitrocellulose membranes (Millipore) and washed extensively.
# (§2) Receptors were expressed on CHO cells, and all ligands were -Fc constructs. MFI was determined by flow cytometry with biotinylated Fc-ligands, after gating on receptor-positive cells. Binding affinity (Kd) was determined by competition radioligand binding assay. Kd is indicated (nM) and is the average value from at least 3 independent assays, except where indicated (*).
# [2] = target: B2; test: flow cytometry, biotinylated ligand + streptavidin-PE vs receptor expression on CHO transfectants
# Source text: (§3) Fc fusion proteins were biotinylated via amine coupling using NHS-PEO4-Biotin (Pierce) in PBS. Binding of biotin-ligands was detected using phycoerythrin-conjugated streptavidin (Caltag). Mouse monoclonal antibody to gD tag (Genentech) was conjugated to AlexaFluor 647 (Invitrogen). Antibodies were conjugated to appropriate fluor labels using standard techniques. Cells were stained per the manufacturer's instructions. Prior to staining, cells were blocked with appropriate sera or purified IgG. Acquisition was performed on a FACSCalibur (BD Biosciences) and analyzed with JoFlo software (Tree Star, Inc.). Forward and side scatter gated viable cells.
# PVR-Fc fusion protein [3] = target: B4; test: competition radioligand binding on CHO cells; upper end tied by Table 6 to PVR-Fc on CHO-TIGIT; PVR-Fc ligand on CHO-TIGIT (upper end of the range)
# Protocol: as §1
# (§4) Non-specific binding was determined using 2000-fold excess cold ligand and subtracted from total binding.
# ESAM (library protein) = target: T1, ESAM (library protein); test: Octet biosensor, TIGIT-Fc loaded on an anti-human Fc sensor
# Protocol: (§5) The resulting fusion protein was transiently expressed in and purified from CHO cells using standard affinity chromatography techniques. […] Proteins were tested for binding in HBS-P (10 mM Hepes, pH 7.4; 0.15M NaCl; 0.005% Surfactant P20). […] The biosensors were washed in buffer (30 seconds), placed into wells containing 5 μg/mL protein for three minutes, and washed again for 30 seconds. The sensors were reloaded and washed after every two binding cycles.
# TEK (library protein) = TEK (library protein) (UniProt Q02763 23-748, limits assumed); test: as above
# Protocol: as §5
# [4] = target: T2, TNFRSF10C (library protein); test: as above
# Protocol: as §5
# IGFBP4 (library protein) = target: T3, IGFBP4 (library protein); test: as above
# Protocol: as §5
# IL-19 (library protein) = target: T4, IL-19 (library protein); test: as above
# Protocol: as §5
# [5] = target: T5, gD-tagged full-length PVR expressed on stably transfected CHO cells (UniProt P15151 21-417, limits assumed); test: flow cytometry, biotinylated Fc-ligand on receptor-expressing CHO cells (+++ MFI = 1000-4999)
# T5 construct: whole, on cells; also called CHO-PVR; PVR-expressing CHO cells
# Source text: as §3, §2
# [6] = target: T6, gD-tagged full-length CD226 expressed on stably transfected CHO cells (UniProt Q15762 19-336, limits assumed); test: flow cytometry, biotinylated ligand + streptavidin-PE vs receptor expression on CHO transfectants
# T6 construct: whole, on cells; also called CHO-CD226
# Source text: as §3
# [7] = target: T7, gD-tagged full-length CD96 expressed on stably transfected CHO cells (UniProt P40200 22-585, limits assumed); test: as above
# T7 construct: whole, on cells; also called CHO-CD96; CD96-expressing CHO cells
# Source text: as §3
# [8] = target: T5, gD-tagged full-length PVR expressed on …; test: radioligand binding, iodinated TIGIT-Fc displaced by unlabeled TIGIT-Fc on PVR-expressing CHO cells
# Protocol: as §1, §4
# [9] = target: B2; test: Octet biosensor, TIGIT-Fc loaded on an anti-human Fc sensor
# Protocol: as §5
# [10] = target: T5, gD-tagged full-length PVR expressed on …; test: flow cytometry, biotinylated ligand + streptavidin-PE vs receptor expression on CHO transfectants
# Source text: as §3
# [11] = target: T8, gD-tagged full-length PVRL2 expressed on stably transfected CHO cells (UniProt Q92692 32-538, limits assumed); test: as above
# T8 construct: whole, on cells
# Source text: as §3
# [12] = target: gD-tagged full-length PVR expressed on stably transfected CHO cells (UniProt P15151); test: flow cytometry, biotinylated Fc-ligand on receptor-expressing CHO cells (+++ MFI = 1000-4999)
# TEK (library protein), sequence (Q02763 23-748 limits assumed): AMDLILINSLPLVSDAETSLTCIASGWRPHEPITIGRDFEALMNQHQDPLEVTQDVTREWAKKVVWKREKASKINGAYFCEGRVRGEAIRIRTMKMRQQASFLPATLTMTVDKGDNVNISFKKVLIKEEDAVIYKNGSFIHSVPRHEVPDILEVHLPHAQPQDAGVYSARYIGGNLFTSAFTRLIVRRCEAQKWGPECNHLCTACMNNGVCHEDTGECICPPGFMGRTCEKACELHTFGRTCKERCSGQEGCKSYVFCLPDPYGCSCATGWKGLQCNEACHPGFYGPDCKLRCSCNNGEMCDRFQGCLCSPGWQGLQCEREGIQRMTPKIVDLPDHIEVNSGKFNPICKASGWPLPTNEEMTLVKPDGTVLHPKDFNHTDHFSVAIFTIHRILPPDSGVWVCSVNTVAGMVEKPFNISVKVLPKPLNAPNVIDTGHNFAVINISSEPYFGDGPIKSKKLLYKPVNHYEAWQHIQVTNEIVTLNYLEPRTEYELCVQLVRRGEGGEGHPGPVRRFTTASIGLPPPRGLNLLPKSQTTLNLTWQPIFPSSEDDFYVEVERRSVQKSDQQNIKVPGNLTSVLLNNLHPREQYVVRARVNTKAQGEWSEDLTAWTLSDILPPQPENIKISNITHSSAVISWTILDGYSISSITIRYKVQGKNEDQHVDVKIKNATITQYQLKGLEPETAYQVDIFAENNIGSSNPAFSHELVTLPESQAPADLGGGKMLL
binder,measurement,setting,value
B1,Kd,PVR-Fc fusion protein [1],3.15 nM
same,binding result,[2],no binding
same,Kd,PVR-Fc fusion protein [3],1 to 3 nM
B2,binding result,ESAM (library protein),no binding
same,binding result,TEK (library protein),no binding
same,binding result,[4],no binding
same,binding result,IGFBP4 (library protein),no binding
same,binding result,IL-19 (library protein),no binding
same,MFI,[5],1000 to 5000 mfi
same,binding result,[6],no binding
same,binding result,[7],no binding
same,IC50 (read off the curve),[8],~4 nM
B3,binding result,[9],no binding
B4,binding result,[10],no binding
same,binding result,[11],no binding
B5,MFI,[12],1000 to 5000 mfi
B6,MFI,[5],1000 to 5000 mfi
